Target: T1, CD4 on CD4 positive cells in human peripheral blood (human, UniProt P01730 26-458)
T1 construct: whole, on cells; also called CD4 molecules
Assay: cell adsorption from human whole blood on covalently immobilized binder (GMA grafted nonwoven fabric column); flow cytometry; mean ± SD of 3
Experimental: Immediately before the initiation of experiment, the PBS(−) solution was drained off by flowing air through the column. 5.0 ml of healthy human fresh blood containing ACD-A ([…] Laboratories) (blood:ACD-A=6.7:1) was fed from the inlet of the cell adsorber at a flow rate of 1.0 ml/min with a syringe pump. After discarding the first five drops, the treated blood was collected from the outlet of the column.
The CD4 positive cell removal rate at that time was calculated based on the change in the number of leukocytes measured by Coulter counter, and the change in the proportion of CD4 positive cells in the recovered cells measured by flow cytometry with use of a flow cytometer (FACS Calibur: Becton, Dickinson and Company). The cells were stained by the following manner. 100 μl of the collected blood was added with 10 μl of anti-CD4-PE solution (clone SK3, Becton, Dickinson and Company), 10 μl of anti-CD8-FITC solution (clone RPA-T8, Becton, Dickinson and Company), and 10 μl of anti-CD45-PerCP solution (Becton, Dickinson and Company). The resultant mixture was allowed to be stained at room temperature for 30 minutes, and then was added with 1 ml of FACS Lysing solution (Becton, Dickinson and Company) to effect hemolysis. CD45 positive cells were gated as leukocytes, and the proportion of CD4 positive cells therein was assayed.

CD4 positive cell removal rate (%): 29.6%
B1: Leu3a scFv-Normal (scFv)
scFv: MADIVLTQSPASLAVSLGQRATISCKASQSVDYDGDSYMNWYQQKPGQPPKLLIYAASNLESGIPARFTGSGSGTDFTLNIHPVEEEDTATYYCQQSYEDPPTFAGGTNLEIKGGGGSGGGGSGGGGSMVHLQESEPELVKPGASVKMSCKASGYTFTDYVINWVKQRTGQGLEWIGETYTGSGSSYYNEKFKDKATLTVDKASNIAYMQLSSLTSEDSAVYFCARRGKGTGFAFWGQGTLVTVSAAAADYKDDDDKGSSEQKLISEEDLGSRSTHHHHHHGSTK
notes: Covalently immobilized on GMA grafted nonwoven fabric in the assay

Source: patent US20100069815A1 (ASAHI KASEI, published 2010)
